One molecule from article doi:10.1101/2023.04.17.537198, “Bitesize bundles F-actin and influences actin remodeling in syncytial Drosophila embryo development” (bioRxiv, 2025) can be followed below.

Assay [1] addresses T1, Rabbit skeletal muscle actin, polymerised (F-actin) (rabbit, UniProt P68135 1-377). Kind of assay: cell-based or functional assay.
The target of assay [2] is T1, Rabbit skeletal muscle actin, …. Kind of assay: co-sedimentation; high-speed pelleting: 0.5 uM BtszB-CT with 0, 0.1, 0.25, 0.5, 1, 2, 4 uM F-actin, 30 min at room temperature, 316,000 x g for 20 min at 25°C; supernatant and pellet on Coomassie gels, densitometry; BtszB-CT pelleted without F-actin subtracted; fit to a Hill equation (cooperative binding model). Conditions: both partners purified.

A word on the Kd: it is the equilibrium constant for the complex coming apart.

B1: C-terminal fragment of Bitesize isoform B (BtszB-CT) (domain or fragment)
chain: VKGQVEFAMQYNYKLSALEVHVVRCKDLAAVDAKRNRSDPYVKVYLLPDKSKAGKRKTKVKKHTLNPIFDETMRFHTPISSLESRTLWLTVWHSDMFGRNDFLGEVSVNLQGRLFDNPQSQWYLLQERSEPFDEVATYRGDIVVGLKYIPPENIKSSFFSRGSSITGSSSNLRKFGGSIKSVASKSERTSKGGQLHVLVKEAKHLSPIKANGTCDAFCKSYLLPDRTRSSKQKTPVVKRTLHPSWNYTFVYEDVSLEELSERALELTVWDHDRLASNEFVGGIRFSLGTGRSYGRQVEWMDATGKELSLWQNMLDRPNFWVEGSLVLRSSLDGIRANLP
As for B1, the “TIRF microscopy bundling assay: filament/bundle fluorescence intensity at FWHM, normalised to the mean of the control reaction (2 uM F-actin), with 1 uM BtszB-CT” value in assay [1] is 3.4 fold of the control reaction (2 uM F-actin). The Kd in assay [2] was determined as 450 nM.
